System: recombinant proinsulin protein

## tissue transglutaminase
  substrate of the deamidase in test tube: recombinant proinsulin protein was shown to be a substrate for TG2
